Results taken from the supplement of paper PMC7877785.
± gives the uncertainty stated by the source.

Test: self-splicing fitness, log relative to wild type (ln ratio); higher = more splicing; Tetrahymena group I intron in knt gene, E. coli kanamycin selection, DiMSum; sequences stand for … in CUCUCU…GGAGGGAAAAGUUAUCAGGCAUGCACCUGGUAGCUAGUCUUUAAACCAAUAGAUUGCAUCGGUUUAAAAGGCAAGACCGUCAAAUUGCGGGAAAGGGGUCAACAGCCGUUCAGUACCAAGUCUCAGGGGAAACUUUGAGAUGGCCUUGCAAAGGGUAUGGUAAUAAGCUGACGGACAUGGUCCUAACCACGCAGCCAAGUCCUAAGUCAACAGAUCUUCUGUUGAUAUGGAUGCAGUUCACAGACUAAAUGUCGGUCGGGGAAGAUGUAUUCUUCUCAUAAGAUAUAGUCGGACCUCUCCUUAAUGGGAGCUAGCGGAUGAAGUGAUGCAACACUGGAGCCGCUGGGAACUAAUUUGUAUGCGAAAGUAUAUUGAUUAGUUUUGGAGUACUCGUGGUCG
Procedure, shortened: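 Colonies from six replicate transformations of E. coli BL21(DE3) were pooled and amplicon-sequenced on an Illumina HiSeq 2500. The library placed an intron with all eight P1ex-region nucleotides randomised inside the knt kanamycin-resistance gene on pET-22b(+), and cells grew overnight at 37°C or 30°C on LB agar with or without 25 μg/mL kanamycin (plus 100 μg/mL carbenicillin, 50 μM IPTG, 0.2% rhamnose). Fitness is the DiMSum error-weighted combination of wild-type-normalised replicate fold changes, kanamycin versus none.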

| Sequence | self-splicing fitness (ln) (30 °C) | self-splicing fitness (ln) (37 °C) |
| --- | --- | --- |
| AUGUAGCAAUAUUACGGAUG | -3.13 ± 0.31 | -2.82 ± 0.41 |
| AUGUAGCAAUAUUACGGCCG | -2.32 ± 0.31 | -0.303 ± 0.33 |
| AUGUAGCAAUAUUACGGCUC | 0.231 ± 0.27 | – |
| AUGUAGCAAUAUUACGGGAA | -2.34 ± 0.38 | -3.07 ± 0.47 |
| AUGUAGCAAUAUUACGGGCG | -1.33 ± 0.091 | -1.28 ± 0.1 |
| AUGUAGCAAUAUUACGGGGC | -4.82 ± 0.34 | -2.87 ± 0.19 |
| AUGUAGCAAUAUUACGGUCA | -0.793 ± 0.14 | -0.745 ± 0.13 |
| AUGUAGCAAUAUUACGGUGC | -2.55 ± 0.3 | – |
| AUGUAGCAAUAUUACGUACU | -0.0156 ± 0.06 | -0.16 ± 0.073 |
| AUGUAGCAAUAUUACGUAGA | -3.11 ± 0.32 | -2.65 ± 0.29 |
| AUGUAGCAAUAUUACGUCGG | -3.01 ± 0.35 | -2.18 ± 0.28 |
| AUGUAGCAAUAUUACGUGAC | -4.13 ± 0.34 | -0.782 ± 0.2 |
| AUGUAGCAAUAUUACGUGCU | -1.29 ± 0.081 | -0.985 ± 0.09 |
| AUGUAGCAAUAUUACGUUAA | -3.07 ± 0.22 | -2.3 ± 0.14 |
| AUGUAGCAAUAUUACGUUGU | -3.85 ± 0.15 | -1.27 ± 0.092 |
| AUGUAGCAAUAUUACGUUUC | -2.86 ± 0.24 | -2.55 ± 0.26 |
| AUUAAGCAAUAUUACGACGG | -2.32 ± 0.23 | -2.54 ± 0.41 |
| AUUAAGCAAUAUUACGACGU | 0.564 ± 0.087 | 0.495 ± 0.093 |
| AUUAAGCAAUAUUACGACUC | 0.675 ± 0.23 | -0.203 ± 0.36 |
| AUUAAGCAAUAUUACGAGCG | -0.827 ± 0.1 | -0.58 ± 0.13 |
| AUUAAGCAAUAUUACGAUAA | -1.48 ± 0.12 | -0.391 ± 0.14 |
| AUUAAGCAAUAUUACGAUUG | -2.98 ± 0.15 | -1.86 ± 0.2 |
| AUUAAGCAAUAUUACGCAAU | -1.74 ± 0.13 | -2.34 ± 0.23 |
| AUUAAGCAAUAUUACGCCAU | -1.86 ± 0.2 | -1.52 ± 0.15 |
| AUUAAGCAAUAUUACGCCUC | -2.77 ± 0.18 | -1.42 ± 0.16 |

| Sequence | self-splicing fitness (ln) (30 °C) | self-splicing fitness (ln) (37 °C) |
| --- | --- | --- |
| AUUAAGCAAUAUUACGCGUC | -2.77 ± 0.3 | -2.19 ± 0.38 |
| AUUAAGCAAUAUUACGCGUU | -1.78 ± 0.11 | -0.33 ± 0.12 |
| AUUAAGCAAUAUUACGCUGA | -2.36 ± 0.41 | -0.862 ± 0.28 |
| AUUAAGCAAUAUUACGCUGG | -1.25 ± 0.12 | -1.39 ± 0.22 |
| AUUAAGCAAUAUUACGGAAG | -3.07 ± 0.17 | -1.29 ± 0.2 |
| AUUAAGCAAUAUUACGGGAA | -2.09 ± 0.26 | -1.43 ± 0.23 |
| AUUAAGCAAUAUUACGGUAG | -4.09 ± 0.29 | -2.57 ± 0.22 |
| AUUAAGCAAUAUUACGGUCC | -0.321 ± 0.14 | -0.358 ± 0.19 |
| AUUAAGCAAUAUUACGGUGG | -3.17 ± 0.28 | -1.94 ± 0.22 |
| AUUAAGCAAUAUUACGUACC | -2.05 ± 0.23 | 0.0479 ± 0.26 |
| AUUAAGCAAUAUUACGUCAA | -2.1 ± 0.22 | -0.766 ± 0.16 |
| AUUAAGCAAUAUUACGUGAA | -1.55 ± 0.14 | -1.5 ± 0.11 |
| AUUAAGCAAUAUUACGUGGA | -3.32 ± 0.2 | -1.05 ± 0.12 |
| AUUAAGCAAUAUUACGUGGC | -2.43 ± 0.15 | -1.71 ± 0.16 |
| AUUAAGCAAUAUUACGUGUU | -2.6 ± 0.11 | -0.83 ± 0.098 |
| AUUAAGCAAUAUUACGUUCC | -3.07 ± 0.29 | -0.839 ± 0.27 |
| AUUCAGCAAUAUUACGAAAU | -1 ± 0.091 | -0.557 ± 0.1 |
| AUUCAGCAAUAUUACGACCA | -0.206 ± 0.26 | 0.501 ± 0.29 |
| AUUCAGCAAUAUUACGAUCU | -0.272 ± 0.057 | 0.457 ± 0.078 |
| AUUCAGCAAUAUUACGCACU | -0.181 ± 0.062 | 0.535 ± 0.086 |
| AUUCAGCAAUAUUACGCAUA | -0.701 ± 0.15 | -1.07 ± 0.14 |
| AUUCAGCAAUAUUACGCCAA | -2.22 ± 0.29 | -1.19 ± 0.27 |
| AUUCAGCAAUAUUACGCCUU | -0.723 ± 0.079 | -0.133 ± 0.096 |
| AUUCAGCAAUAUUACGCGGU | -3 ± 0.14 | -2.21 ± 0.15 |
| AUUCAGCAAUAUUACGCUAA | -0.96 ± 0.094 | -0.0329 ± 0.1 |

| Sequence | self-splicing fitness (ln) (30 °C) | self-splicing fitness (ln) (37 °C) |
| --- | --- | --- |
| AUUCAGCAAUAUUACGGAUG | -0.985 ± 0.079 | -0.448 ± 0.097 |
| AUUCAGCAAUAUUACGGCCC | -0.851 ± 0.16 | -0.422 ± 0.21 |
| AUUCAGCAAUAUUACGGGAA | -1.36 ± 0.12 | -0.871 ± 0.13 |
| AUUCAGCAAUAUUACGUAUU | -0.474 ± 0.065 | -0.558 ± 0.092 |
| AUUCAGCAAUAUUACGUGCC | -1.51 ± 0.1 | -0.682 ± 0.14 |
| AUUCAGCAAUAUUACGUGUG | -1.9 ± 0.062 | -0.699 ± 0.067 |
| AUUGAGCAAUAUUACGAAAA | -2.45 ± 0.41 | – |
| AUUGAGCAAUAUUACGAAGG | -2.69 ± 0.36 | -2.39 ± 0.3 |
| AUUGAGCAAUAUUACGACGA | -3.19 ± 0.4 | -0.517 ± 0.22 |
| AUUGAGCAAUAUUACGAGAC | – | -0.883 ± 0.45 |
| AUUGAGCAAUAUUACGAGGU | -3.14 ± 0.36 | -2.02 ± 0.36 |
| AUUGAGCAAUAUUACGCAAC | -3.42 ± 0.26 | -2.26 ± 0.39 |
| AUUGAGCAAUAUUACGCAAU | -3.28 ± 0.26 | -2.07 ± 0.21 |
| AUUGAGCAAUAUUACGCACU | -0.165 ± 0.14 | -0.756 ± 0.15 |
| AUUGAGCAAUAUUACGCCGC | -2.67 ± 0.49 | – |
| AUUGAGCAAUAUUACGCCGU | – | -2.56 ± 0.49 |
| AUUGAGCAAUAUUACGCGAU | -3.68 ± 0.32 | -2.33 ± 0.34 |
| AUUGAGCAAUAUUACGCGGA | -4.15 ± 0.35 | -2.2 ± 0.14 |
| AUUGAGCAAUAUUACGCGUA | – | -1.87 ± 0.31 |
| AUUGAGCAAUAUUACGCUGU | -1.97 ± 0.25 | – |
| AUUGAGCAAUAUUACGCUUA | -2.75 ± 0.16 | -1.02 ± 0.13 |
| AUUGAGCAAUAUUACGGAAC | -3.09 ± 0.23 | – |
| AUUGAGCAAUAUUACGGAAG | – | -2.63 ± 0.32 |
| AUUGAGCAAUAUUACGGAGG | -2.97 ± 0.22 | – |
| AUUGAGCAAUAUUACGGAUU | -2.96 ± 0.23 | -1.64 ± 0.23 |

| Sequence | self-splicing fitness (ln) (30 °C) | self-splicing fitness (ln) (37 °C) |
| --- | --- | --- |
| AUUGAGCAAUAUUACGGCCA | -2.29 ± 0.18 | -0.921 ± 0.18 |
| AUUGAGCAAUAUUACGGGGC | -3.06 ± 0.26 | -3.09 ± 0.3 |
| AUUGAGCAAUAUUACGGGUG | -4.2 ± 0.28 | -2.2 ± 0.3 |
| AUUGAGCAAUAUUACGUACA | -3.85 ± 0.27 | -1.87 ± 0.16 |
| AUUGAGCAAUAUUACGUGUU | -3.91 ± 0.22 | -2.34 ± 0.14 |
| AUUGAGCAAUAUUACGUUAA | -3.84 ± 0.37 | -1.47 ± 0.26 |
| AUUGAGCAAUAUUACGUUAG | -3 ± 0.14 | -2.73 ± 0.19 |
| AUUGAGCAAUAUUACGUUUG | – | -1.91 ± 0.26 |
| AUUUAGCAAUAUUACGAAGG | -3.42 ± 0.38 | -2.76 ± 0.41 |
| AUUUAGCAAUAUUACGAAUC | -4.21 ± 0.31 | -3.21 ± 0.35 |
| AUUUAGCAAUAUUACGAUAC | -2.44 ± 0.17 | -1.01 ± 0.25 |
| AUUUAGCAAUAUUACGAUCC | -0.5 ± 0.4 | -0.408 ± 0.23 |
| AUUUAGCAAUAUUACGCAAA | -1.86 ± 0.15 | -1.82 ± 0.17 |
| AUUUAGCAAUAUUACGCGCC | -0.641 ± 0.26 | -0.828 ± 0.34 |
| AUUUAGCAAUAUUACGCGGA | -1.73 ± 0.23 | -0.805 ± 0.17 |
| AUUUAGCAAUAUUACGCGGC | – | -2.08 ± 0.5 |
| AUUUAGCAAUAUUACGCGUC | -3.21 ± 0.3 | -2.96 ± 0.47 |
| AUUUAGCAAUAUUACGCUGG | -1.97 ± 0.27 | -1.4 ± 0.33 |
| AUUUAGCAAUAUUACGGAAG | -1.33 ± 0.29 | -1.49 ± 0.39 |
| AUUUAGCAAUAUUACGGAAU | -2.62 ± 0.28 | -2.49 ± 0.26 |
| AUUUAGCAAUAUUACGGCCU | 0.607 ± 0.15 | -0.166 ± 0.16 |
| AUUUAGCAAUAUUACGGGGG | -2.97 ± 0.42 | -2.81 ± 0.47 |
| AUUUAGCAAUAUUACGGUCA | -0.961 ± 0.13 | -0.48 ± 0.12 |
| AUUUAGCAAUAUUACGGUCG | -1.98 ± 0.15 | -1.38 ± 0.22 |
